The values that follow are results of earlier work, collected in article PMC9811451.

The data set deals with ACE2 (Homo sapiens) (UniProt Q9BYF1).
Sequence of ACE2 (Homo sapiens) (Q9BYF1 18-740): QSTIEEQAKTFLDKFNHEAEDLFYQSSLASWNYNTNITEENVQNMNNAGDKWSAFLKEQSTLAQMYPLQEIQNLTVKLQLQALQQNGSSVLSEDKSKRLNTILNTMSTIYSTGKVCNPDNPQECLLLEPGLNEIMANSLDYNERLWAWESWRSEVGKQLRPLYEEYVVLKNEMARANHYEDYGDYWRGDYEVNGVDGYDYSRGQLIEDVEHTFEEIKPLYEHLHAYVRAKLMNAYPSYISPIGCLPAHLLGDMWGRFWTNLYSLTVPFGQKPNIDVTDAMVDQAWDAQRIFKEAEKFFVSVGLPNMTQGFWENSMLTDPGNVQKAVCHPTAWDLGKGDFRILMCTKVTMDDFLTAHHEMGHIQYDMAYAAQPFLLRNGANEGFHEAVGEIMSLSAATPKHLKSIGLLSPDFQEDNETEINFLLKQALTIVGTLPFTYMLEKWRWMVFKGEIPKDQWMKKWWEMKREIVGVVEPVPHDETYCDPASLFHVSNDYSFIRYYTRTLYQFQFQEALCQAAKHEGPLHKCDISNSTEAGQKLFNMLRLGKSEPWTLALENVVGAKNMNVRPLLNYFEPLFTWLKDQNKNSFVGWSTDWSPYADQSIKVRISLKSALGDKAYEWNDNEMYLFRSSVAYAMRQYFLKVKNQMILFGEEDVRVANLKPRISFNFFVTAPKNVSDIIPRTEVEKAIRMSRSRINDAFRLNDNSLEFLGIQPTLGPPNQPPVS

In the case of Spike (from UniProt P0DTC2), the Kd was 4 nM.
